# Source: publication PMC4317571
# Legend:
# [1] = biological target: p53 K382ac peptide (Homo sapiens) (UniProt P04637); settings: cited from earlier work
# [2] = biological target: tandem Tudor domain (TTD) of p53-binding protein 1 (53BP1), wild type (UniProt Q12888); test: other fluorescence titration + NMR titration
# [3] = biological target: bromodomain (BD) of p300; test: NMR titration
# [4] = biological target: tandem Tudor domain (TTD) of p53-binding protein 1 (53BP1), wild type (UniProt Q12888); test: other fluorescence titration
Kd [2] [µM],Kd [3] [µM],Kd [4] [µM],Substance,Kd [1] [µM]
,,,CBP bromodomain (from UniProt Q92793),187
> 5000,241,,p53K381ac peptide (p53 acetylated at K381) (from UniProt P04637 377-386),
,282,0.76,p53K381acK382me2 peptide (p53 acetylated at K381 and dimethylated at K382) (from UniProt P04637 377-386),
